Test results published in the RNAGym collection of RNA variant scans (doi:10.1073/pnas.2313332121).
Variants at the floor of the assay were thinned out.

B1: TPR 5TU (parent)
chain: GGAUCUUCUCGAUCUAACAAAAAAGACAAAUCUGCCACAAAGCUUGAGAGCAUCUUCGGAUGCAGAGGCGGCAGCCUUCGGUGGCGCGAUAGCGCCAACGUUCUCAACUAUGACACGCAAAACGCGUGCUCCGUUGAAUGGAGUUUAUCAUG

Variants of: B1
Test: polymerase ribozyme fitness, log enrichment relative to wild type (log ratio); higher = more active; in vitro selection for triplet polymerase activity
Summary of the method: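 The heterodimeric triplet polymerase ribozyme's subunits were each mutagenized into PCR-built libraries and transcribed. Every library was selected once, in triplicate, by annealing with a biotinylated primer, the partner subunit and triplets, incubating frozen at −7 °C, gel-excising extended constructs, capturing on streptavidin beads and running RT-PCR. Input and output libraries were Illumina-sequenced, with genotypes kept only at ≥10 input reads and ≥1 read per output. Fitness, from inverse-variance-weighted replicate averages, is the base-2 logarithm of genotype enrichment over wild-type enrichment.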

Compared with GGAUCUUCUCGAUCUAACAAAUAAGACAAAUCUGCCACAAAGCUUGAGAGCAUGUUCGGAUGCAGAGGCGGCAGCCUUCGGUGGCGCGAUAGCGUCAACGUUCUCAACUAUGACACGCAAAACGCGUGCUCCGUUGAAUGGAGUUUAUCAUG [A22U C54G C95U], GGAUCUUCUCGAUCUAACAAAAAAGCCAAAUCUGCCACAAAGCUUGAGAGCCUCUUCGGAUGCAGAGGUGGCAGCCUUCGGUGGCGCGAUAGCGCCAACAUUCUCAACUAUGACACGCAAAACGAGUGCUCCGUUGAAUGGAGUUUAUCAUG [A26C A52C C69U G100A C125A] is lower in “polymerase ribozyme fitness (log ratio)” value: -2.06 for the first, ≤ -4.2 for the second.

GGAACUUCUCGAUCUAACAAAAAAGACAUAUCUGCCAUAAAGCAUGAGAGCAUCAUUGGAUGCAGAGGCGGCAGCCUUCGGUGGCGGGAUAGCGGCAACGUUCUCAACUAUGACACGCAAAACGCGUGCUCCGUUGAAUGGAGUUUAUCAUG [U4A A29U C38U U44A U55A C57U C87G C95G] and GGAUCUUCUCGAUCUAUCACAAAAGACAAAUCUGCCACAAAGCUUGAGAGCAUCUUUGGUUGCAGAGGCGGCAGCCUUCGGUGGCGCGAUAGAUCCAACGUUCUCAACUAUGACACGCAAACCGCUUGCUCCGUUGAAUGGAGUUUAUCAUG [A17U A20C C57U A60U C93A G94U A122C G126U] cannot be ordered by “polymerase ribozyme fitness (log ratio)” value: ≤ -4.2 for the first, ≤ -4.2 for the second.

First: GGAUCUUCUCGAUCUAACAAAAAAGACAAAUCUGCCACAAAGCUUGAGAGCAUCUUCGGAUGCAGAGGCGGCAGCCUUCGGUGGCGCGAUAGCGCUAACGUUCUAAACUAUGACACGCAAAACGCGUGCUCCGUUGAAUGGAGUUUAUCAUG [C96U C105A]
Second: GGAUCUUCUCGAUCUAACAAAAAAGACAAAUCUGCCAAAAAGCUUGAGAGCAUCUUCGGAUGCAGAGGCGGCAGCCUUCGGUGGCGCGAUAGCGACAACGUUCUCAACUAUGACACGAAAAACGCGUGCUCCGUUGAAUGGAGUUUAUCAUG [C38A C95A C118A]
The “polymerase ribozyme fitness (log ratio)” value of the first is higher: -0.493 for the first, -1.55 for the second.

Going from GGAUCUUCUCAAUCUAACAAAAAAGACAAAUCUGCCACAAAGCUUGAGAGCAUCUUCGGAUGCAGAGGCGGCAGCCUUCGGUGGCGCGAUGGCGCCAACGUUCUCAACUAUGACACGCAAAACGCGUGCUCCGUUGAUUGGAGUUUAUCAUG [G11A A91G A138U] to GGAUCUUCUCGAUCGAACAAAAAAGACAAAUCUGCCACAAAGCUUGAGAGCAUCUUCGGAUGCAGAGGCGGCAGCCUUCGGUGGCGCGAUAGCGCCAACGUUAUCAACUAUGACACGCAAAACGCGUGCUCCGUUGAAUGGAGUUUAUCAUG [U15G C103A], the “polymerase ribozyme fitness (log ratio)” value rises from ≤ -4.2 to -1.91.

GGAUCUUCUCGAUCUAACAAAAAAGACAAAUCUGCCACAAAGCUUGAGAGCAUCUUCGGAUGCAGAGACGGCAGCCUUCGGUGGUGCGAUAGCGCCUACGUUCUCAUCUAUGACACGCAAAACGCGUACUCUGUUGAAUGGAGUUUAUCAUG [G68A C85U A97U A107U G128A C132U] and GGAUCUUCUCGAUCUAACAAAAAAGACAAAUCUGCCACAAAGCUUGAGAGCAUCUUCGGAUGCAGAGGCCGCAGCCUUCGGUGGCGCUAUGGCGACAACGUUCUCAACUAUGACACGCGAAACGCGUGCUCCGUUGAAUGGAGCUUACCAUG [G70C G88U A91G C95A A119G U144C U148C] cannot be ordered by “polymerase ribozyme fitness (log ratio)” value: ≤ -4.2 for the first, ≤ -4.2 for the second.

Compared with GGAUUUUCUCGAUCUAACAAAAAAGACAAAUCUGCCACAAAGCUUGAGAGCAUCUUCGGAUGCAGAGGCGGCAGCCUUCGGAGGAGCGAUAGCGCCAAAGGUCUCAACUAUGACACGCAAAACGCGUGCUCCGUUGAAUCGAGUUUAUCAUG [C5U U82A C85A C99A U101G G140C], GGAUCUUAUCGAUCUAACAAAAAAGACAAAUCUGCCACAAAGCUUGAGAGCAUCUUCGGAUGCAGAGGCGGCAGCCUUCGGUGGCGCGAUAGUGCCAACGUUCUCAACUAUGACACGCAAAACGCGUGCUCCGUUGAAUGGAGUUUAUCAUG [C8A C93U] is higher in “polymerase ribozyme fitness (log ratio)” value: ≤ -4.2 for the first, -3.42 for the second.

Compared with GGAUCUUCUCGUUCUAACAAAAAAGACAAAUCUGCCACAAAGCUUGAGAGCAUUUUCGGAUGCAGAGGCGGCAGCCUUCGGUGGCGCGAUAGCGCCAACGUUCUCAACUAUGACACGCAAAACGCGUGCUCCGAUGAAUGGAGUGUAUCAUG [A12U C54U U134A U145G], GGAUCUUCUCAAUCUAACAAAAAAGACAAAUCUGCCACAAAGCUUGAGAGCAUCUUCGGAUGCAGAGGCGGCAGCCUUCGGUGGCGCGAUGGCGCCAACGUUCUCAACUAUGACACGCAAAACGCGUGCUCCGUUGAAUGGAGUUUAUCAUG [G11A A91G] is lower in “polymerase ribozyme fitness (log ratio)” value: -3.56 for the first, -3.81 for the second.

Compared with GGAUCUUCUCGGUCUAACAAAAAAGACAAAUCUGCCACAAAGCUUGAGAGCAUCUUCGGAUGCAGAGGCGGCAGCCAUCGGUGGCGCGAUAGCGCAAGCGUUCUCAACUAUGACACGCAAAACGCGUGCUCCGUUGAAUGGAGUUUAUCAUG [A12G U77A C96A A98G], GGAUCUUCUCGAUCUAACAAAAAAGACAAAUCUGCCACAAAGCUUGAGAGCAUCUUCGGAUGCAGAGGCGGCAGCCUUCGGUGGCGCGAUAGCGCCAACGUUCUCAACUAUGACACGCAAAACGCGUGCCCCGUUGAAUGGAGCUUCUCAUG [U130C U144C A147C] is higher in “polymerase ribozyme fitness (log ratio)” value: ≤ -4.2 for the first, -1.95 for the second.

Compared with GGAUCUUCUCGAUCUAACAAAGAAGACCAAUCGGCCACAAAGCUUGAGAGCAUCUUCGGAUGCAGAGGCGGCAGCCUUCGGUGGCGCGAUAGACUCAACGUUCUCAACUAUGACACGCAAUACGCGUGCUCCGUUGAAUGGAGUUUAUCAUG [A22G A28C U33G C93A G94C C95U A121U], GGAUCUUCUCGAUCUAACAAAUAAGACAAAUCUGCCACAAAGCUUGAGAGCAUCUUCGGAUGCAGAGGCGGCAGCCUUCGGUGGCGCGAUAGAGCCAACGUUCUCAACUAUGACACGCAAAACGCGUGCUCCGUUGAAUGGAGUUUAUCAUG [A22U C93A] is higher in “polymerase ribozyme fitness (log ratio)” value: ≤ -4.2 for the first, -2.34 for the second.

In the case of GGAUCUUCUCGAUCUAACAAAAAAGACAAAUCUGCCACAAAGCUUGAGAGCAUCUUCAGAUGCAGAGGCGGCAGCCUUCGGUGGCGCGAUAGCGCCAACGUUCUCAACUAUGACACGCAAAACGCGUGCUCCGUUGAAUGGUGUUUAUCAUG [G58A A142U], the “polymerase ribozyme fitness (log ratio)” value is reported as -0.199.
